Measured values: patent US11332546B2, “Protease inhibitory antibodies and methods of use thereof” (The Regents of The University of California, priority 2019, dated 2022)

How the values were obtained:
[1] = test system: HEK293F cells expressing APP571-696; test: Aβ40 formation in HEK293F cells expressing APP571-696 (ELISA); type: cell-based; conditions: HEK293 cells expressing APP, IgG 72 h, dose-dependent
Experimental: For amyloid precursor protein (APP) degradation studies, APP571-696 was cloned to the C-terminal of maltose binding protein (MBP) for E. coli expression and purified using amylose resin (NEB). 5 μM purified MBP-APP was incubated with 1 μM BACE1-Fc in the absence or presence of 1 μM IgG in BACE1 assay buffer at 37° C. for 24 h. In addition, APP571-696 was cloned to a pcDNA plasmid carrying a SPE leader for secretion expression. Transfected HEK293F cells were cultured in Expi293 media for 72 hrs with the presence of 14-800 nM purified IgG. The supernatants were clarified by centrifugation and 0.45 μm filtration, and produced Aβ1-40 was quantified by ELISA (Abcam).

cathepsin B [2] = target: T1, cathepsin B (Homo sapiens, UniProt P07858); test: Binding kinetics by biolayer interferometry, Fabs on cathepsin B; conditions: Fab, read-out: Binding Affinity KD
T1 construct: human cathepsin B (residue 66-339); hexahistidine (C); made in house; host or cells: E. coli (periplasm)
Experimental: Binding kinetics of produced antibodies towards associated protease targets were analyzed by using biolayer interferometry (ForteBio). For Fabs, biotinylated proteases were immobilized on streptavidin biosensors, and Fab binding to the sensors in absence of protease was monitored as backgrounds. For IgGs, protein A sensors were used and protease bindings without IgG were checked as backgrounds. kon and koff were determined for KD calculations. […] Fab in vitro stability was tested by incubating 1 μM Fab with 1 μM of the respective protease in the assay buffer for 12 hours and the samples were analyzed by SDS-PAGE.

cathepsin K = target: T2, cathepsin K (Homo sapiens, UniProt P43235); test: FRET inhibition selectivity test, cathepsin K; type: biochemical; conditions: same Fab concentrations as for cathepsin B
T2 construct: hexahistidine (C); made in house; host or cells: E. coli (periplasm)
T2 sequence (P43235 115-329): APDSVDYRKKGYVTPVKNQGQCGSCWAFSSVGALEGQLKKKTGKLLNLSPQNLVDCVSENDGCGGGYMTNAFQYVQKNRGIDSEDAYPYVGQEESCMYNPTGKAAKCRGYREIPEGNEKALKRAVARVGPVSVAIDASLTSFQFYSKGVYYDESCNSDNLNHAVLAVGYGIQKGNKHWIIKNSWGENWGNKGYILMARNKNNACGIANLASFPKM
Experimental: (§3) For inhibition tests, 1 μM Fabs were 2-fold serially diluted into protease specific assay buffer and incubated with 1-10 nM proteases for 30 min at room temperature. […] Inhibition percentages at given concentrations were calculated by comparing the initial reaction rates in the presence or absence of inhibitor. IC50 was determined as the concentration that achieved 50% inhibition, and KI values were calculated using KI=IC50/(S/Km+1). Vmax and Km at various Fab concentrations were measured to determine the inhibition type. FRET inhibition assays were also used for selectivity tests of isolated Fabs with the relevant proteases.

cathepsin B [3] = target: T1, cathepsin B; test: FRET peptide inhibition assay, cathepsin B (M-2595); type: biochemical; conditions: Fab; for Ki: cathepsin B, FRET peptide, read-out: Inhibition Potency KI
Experimental: as §3

cdMMP-9 [4] = test: Bio-layer interferometry on cdMMP-9; type: binding; conditions: read-out: KD toward cdMMP-9
cdMMP-12 wt [5] = target: T3, cdMMP-12 wt (Homo sapiens, UniProt P39900); test: Elastin-FITC hydrolysis inhibition, cdMMP-12 wt; type: biochemical; conditions: 7 nM wt cdMMP-12, 37° C., 12 h
T3 construct: hexahistidine (C); made in house; host or cells: E. coli BL21 (pET32b, cytoplasmic)
Experimental: Inhibition tests with macromolecular substrates 10 μg/mL FITC-conjugated elastin (AnaSpec) was incubated with 7 nM cdMMP-12 D4/wt and 2-2000 nM purified Fab in 50 mM Tris-HCl, 150 mM NaCl, 5 mM CaCl2), 100 μM ZnCl2 pH 7.5. Generated fluorescent signals were measured at 12 h with λEx of 490 nm and λEm of 520 nm. For inhibition assays on fibronectin, 200 nM fibronectin (Corning) was incubated with 200-350 nM cdMMP-12 wt and 2 μM GM6001 or 0.1-6 μM Fabs in 50 mM HEPES, 150 mM NaCl pH 7.5 at 37° C. for 2-4 h. The samples were separated on 5% non-reducing SDS-PAGE and analyzed by western blotting with anti-Fibronectin antibody (Abcam) and chemiluminescent substrate (Thermo Scientific). For inhibition assays on modified TEM-1 carrying cleavable sequence ([…] (SEQ ID NO:134)) and a N-terminal HA tag, 250 nM modified TEM-1 was incubated with 700 nM cdMMP-12 wt and 10 μM Fabs in 50 mM HEPES, 150 mM NaCl pH 7.5 at 37° C. for 4 h. The samples were separated on 12% non-reducing SDS-PAGE, and the modified TEM-1 was visualized by western blotting using anti-HA antibody (Invitrogen) and chemiluminescent substrate. Assays without cdMMP-12s or Fabs were performed as controls.

cdMMP-12 wt [6] = target: T3, cdMMP-12 wt; test: FRET peptide inhibition assay, cdMMP-12 wt; type: biochemical; conditions: toward cdMMP-12 wild type
Experimental: (§1) FRET peptide inhibition assays In 96-well assay plates (Corning), 60/250/350/10/10/30 nM of (cd)MMP-1/-7/-9/-12 D4/-12 wt/-14 were preincubated with 1 nM-1 μM purified Fabs for 30 min at room temperature then 1 μM substrate M-2350 (Bachem) was added. Generated fluorescent signals (λEx=328 nm, λEm=393 nm) were monitored at 37° C. to measure the initial velocities. To calculate inhibition constants (KIs), data were fit with the equations for slow tight-binding inhibitors. The inhibition type of the Fabs was determined using the initial velocities of cdMMP-12 D4 as a function of substrate concentration (250-2000 nM) at various Fab concentrations (31-500 nM). The values of Vmax and Km were derived from linearization in accordance with the Lineweaver-Burk equation.

cdMMP-14 = cdMMP-14 (Homo sapiens, UniProt P50281); test: Bio-layer interferometry on cdMMP-14; type: binding; set-up: human MMP-14 (residue 114-320); hexahistidine (C); made in house; host or cells: E. coli periplasm; conditions: read-out: KD toward cdMMP-14
cdMMP-9 [7] = test: FRET peptide inhibition assay, cdMMP-9 (Example 2); type: biochemical; conditions: FRET peptide; read-out: K1 toward cdMMP-9
Experimental: as §1

cdMMP-12 wt [8] = target: T3, cdMMP-12 wt; test: Fibronectin proteolysis inhibition, cdMMP-12 wt (western blot); type: biochemical; conditions: 6 μM Fab; 350 nM wt cdMMP-12, 200 nM fibronectin, 37° C.
Experimental: Inhibition tests with macromolecular substrates 10 μg/mL FITC-conjugated elastin (AnaSpec) was incubated with 7 nM cdMMP-12 D4/wt and 2-2000 nM purified Fab in 50 mM Tris-HCl, 150 mM NaCl, 5 mM CaCl2), 100 μM ZnCl2 pH 7.5. Generated fluorescent signals were measured at 12 h with λEx of 490 nm and λEm of 520 nm. […] The samples were separated on 5% non-reducing SDS-PAGE and analyzed by western blotting with anti-Fibronectin antibody (Abcam) and chemiluminescent substrate (Thermo Scientific). […] Assays without cdMMP-12s or Fabs were performed as controls.

cdMMP-12 mutant D4 [9] = target: T4, cdMMP-12 mutant D4 (Homo sapiens, UniProt P39900, A167E/A173P/A252Q/H206S/I245T/K233R/M156E/N119Q/N126H/R135E/T215V/V161I/Y113D/Y132K); test: FRET peptide inhibition assay, cdMMP-12 D4; type: biochemical; conditions: cdMMP-12 D4, FRET peptide, 31-500 nM Fab
T4 construct: hexahistidine (C); made in house; host or cells: E. coli BL21, pET32b (cytoplasmic, soluble fraction)
Experimental: as §1

cdMMP-12 wt [10] = target: T3, cdMMP-12 wt; test: Proteolytic stability of Fabs with cdMMP-12 wt; type: physicochemical; conditions: 2 μM Fab, 2 μM cdMMP-12 wt, 4 h, 37° C.
Experimental: (§2) Proteolytic stability tests 2 μM purified Fabs were incubated with 2 μM cdMMP-12 wt/D4 in 50 mM HEPES, 150 mM NaCl pH 7.5 at 37° C. for 4 h. Samples were analyzed by using 12% non-reducing SDS-PAGE and stained with Coomassie blue. Densitometric interpretation was conducted using a ChemiDoc imager (Bio-Rad).

MMP-1 = target: T5, MMP-1 (Homo sapiens, UniProt P03956); test: FRET peptide inhibition assay, MMP-1; type: biochemical
T5 construct: purchased AnaSpec
T5 sequence (P03956 100-469): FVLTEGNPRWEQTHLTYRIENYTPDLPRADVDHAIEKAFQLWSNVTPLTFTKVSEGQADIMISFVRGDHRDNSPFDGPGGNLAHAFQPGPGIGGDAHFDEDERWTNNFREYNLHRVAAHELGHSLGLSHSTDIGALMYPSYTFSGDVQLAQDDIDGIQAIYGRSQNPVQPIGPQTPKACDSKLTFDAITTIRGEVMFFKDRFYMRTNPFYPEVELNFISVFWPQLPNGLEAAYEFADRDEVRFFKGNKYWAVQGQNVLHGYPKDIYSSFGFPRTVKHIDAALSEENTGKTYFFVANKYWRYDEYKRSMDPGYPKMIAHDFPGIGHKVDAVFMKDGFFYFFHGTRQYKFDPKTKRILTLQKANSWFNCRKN
Experimental: as §1

cdMMP-12 mutant D4 [11] = target: T4, cdMMP-12 mutant D4; test: Proteolytic stability of Fabs with cdMMP-12 D4; type: physicochemical; conditions: 2 μM Fab, 2 μM cdMMP-12 D4, 4 h, 37° C.
Experimental: as §2

MMP-7 = target: T6, MMP-7 (Homo sapiens, UniProt P09237); test: FRET peptide inhibition assay, MMP-7; type: biochemical
T6 construct: purchased AnaSpec
T6 sequence (P09237 95-267): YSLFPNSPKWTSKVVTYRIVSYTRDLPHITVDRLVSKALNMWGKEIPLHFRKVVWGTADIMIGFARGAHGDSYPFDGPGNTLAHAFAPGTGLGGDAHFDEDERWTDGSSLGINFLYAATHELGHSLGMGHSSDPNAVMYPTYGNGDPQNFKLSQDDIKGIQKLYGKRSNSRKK
Experimental: as §1

T3 sequence (P39900 106-263): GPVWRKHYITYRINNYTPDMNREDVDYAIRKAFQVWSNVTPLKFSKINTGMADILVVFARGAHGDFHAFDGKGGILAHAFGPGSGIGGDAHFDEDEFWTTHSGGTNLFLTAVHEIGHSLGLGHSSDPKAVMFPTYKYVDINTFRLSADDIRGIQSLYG
Chain of cdMMP-9 (P14780 with tags, fused parts or gaps DEL216-390 limits assumed): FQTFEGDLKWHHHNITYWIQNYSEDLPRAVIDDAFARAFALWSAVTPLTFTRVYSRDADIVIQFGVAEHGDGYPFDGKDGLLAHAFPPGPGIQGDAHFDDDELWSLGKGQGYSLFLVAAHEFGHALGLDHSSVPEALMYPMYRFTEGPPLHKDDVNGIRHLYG
T4 sequence (P39900 106-263 Y113D/N119Q/N126H/Y132K/R135E/M156E/V161I/A167E/A173P/H206S/T215V/K233R/I245T/A252Q): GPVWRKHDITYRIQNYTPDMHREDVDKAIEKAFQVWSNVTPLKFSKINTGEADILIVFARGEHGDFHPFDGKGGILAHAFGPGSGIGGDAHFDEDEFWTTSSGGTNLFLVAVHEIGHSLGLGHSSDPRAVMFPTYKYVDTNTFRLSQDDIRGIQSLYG

B1: IgG B2B2: anti-BACE1 IgG of clone B2B2 (antibody, V domains shown)
VH: EVQLVESGGGLVQPGGSLRLSCAASGFNISSYYMHWVRQAPGKGLEWVASIYSSYGYTYYADSVKGRFTISADTSKNTAYLQMNSLRAEDTAVYYCARYWGYYAWFGSHPWAYGAFDYWGQGTLVTVSSAS
VL: DIQMTQSPSSLSASVGDRVTITCRASQSVSSAVAWYQQKPGKAPKLLIYSASSLYSGVPSRFSGSRSGTDFTLTISSLQPEDFATYYCQQYGYYLITFGQGTKVEIKR
[1]
  Reduction of amyloid beta (Aβ40) production: 80%

B2: Fab CBA2: anti-cathepsin B antibody clone; VL SEQ ID NO:108, VH SEQ ID NO:81, CDR-H3 SEQ ID NO:84 (antibody, V domains shown)
VH: EVQLVESGGGLVQPGGSLRLSCAASGFNIYYYSIHWVRQAPGKGLEWVAYIYSYYGSTYYADSVKGRFTISADTSKNTAYLQMNSLRAEDTAVYYCARYGYPGGYHFWGWWSSPYAFDYWGQGTLVTVSSAS
VL: DIQMTQSPSSLSASVGDRVTITCRASQSVSSAVAWYQQKPGKAPKLLIYSASSLYSGVPSRFSGSRSGTDFTLTISSLQPEDFATYYCQQWSSSWGYLITFGQGTKVEIKR
Cathepsin B [2]
  Kd: 190 nM
Cathepsin K
  Inhibition of cathepsin K (selectivity): but not cathepsin K
Cathepsin B [3]
  Inhibition of cathepsin B (in words): inhibited cathepsin B completely
  Ki: 130 nM

B3: Fab CBA1: anti-cathepsin B antibody clone; VL SEQ ID NO:110, VH SEQ ID NO:85, CDR-H3 SEQ ID NO:87 (antibody, V domains shown)
VH: EVQLVESGGGLVQPGGSLRLSCAASGFNLYSSYIHWVRQAPGKGLEWVASIYPYSSSTSYADSVKGRFTISADTSKNTAYLQMNSLRAEDTAVYYCARGGGSWSAMDYWGQGTLVTVSSAS
VL: DIQMTQSPSSLSASVGDRVTITCRASQSVSSAVAWYQQKPGKAPKLLIYSASSLYSGVPSRFSGSRSGTDFTLTISSLQPEDFATYYCQQHYSLITFGQGTKVEIKR
Cathepsin B [2]
  Kd: 290 nM
Cathepsin K
  Inhibition of cathepsin K (selectivity): but not cathepsin K
Cathepsin B [3]
  Inhibition of cathepsin B (in words): inhibited cathepsin B completely
  Ki: 200 nM

B4: Fab LH11: anti-MMP-12 antibody clone; VL SEQ ID NO:124, VH SEQ ID NO:126, CDR-H3 SEQ ID NO:129 (antibody, V domains shown)
VH: EVQLVESGGGLVQPGGSLRLSCAASGFNLSYYSMHWVRQAPGKGLEWVAYIYPYYGSTYYADSVKGRFTISADTSKNTAYLQMNSLRAEDTAVYYCARFLLSIGKLFVGDGSILHVWLYGMDYWGQGTLVTVSSAS
VL: DIQMTQSPSSLSASVGDRVTITCRASQSVSSAVAWYQQKPGKAPKLLIYSASSLYSGVPSRFSGSRSGTDFTLTISSLQPEDFATYYCQQAYYGYLFTFGQGTKVEIKR
cdMMP-9 [4]
  Kd: 740 nM
cdMMP-12 wt [5]; 2 nM Fab
  Inhibition of elastin-FITC hydrolysis: 0%
cdMMP-12 wt [5]; 16 nM Fab
  Inhibition of elastin-FITC hydrolysis: 49%
cdMMP-12 wt [5]; 63 nM Fab
  Inhibition of elastin-FITC hydrolysis: 62%
cdMMP-12 wt [5]; 500 nM Fab
  Inhibition of elastin-FITC hydrolysis: 86%
cdMMP-12 wt [6]
  Inhibition FRET peptide: non-
cdMMP-14
  Kd: ~700 nM
cdMMP-9 [7]
  Ki: 6200 nM
cdMMP-12 wt [8]
  Fibronectin remaining after cdMMP-12 wt hydrolysis: significant amounts of fibronectin remained
cdMMP-12 mutant D4 [9]
  Type of inhibition (Lineweaver-Burk): substrate competitive manner
cdMMP-12 wt [10]
  Fab remained intact after exposure to cdMMP-12 wt: 67%
MMP-1
  Inhibition of MMP-1 (selectivity): did not inhibit and non-
cdMMP-12 mutant D4 [11]
  Degradation of Fab by cdMMP-12 D4: no significant degradation
MMP-7
  Inhibition of MMP-7 (selectivity): did not inhibit and non-
